Consider two substances from publication PMC6110070.

Series [1] deals with Lys65 (UniProt position 66, AAGANKVAVIK). Particulars: Not stated. Ref 16 concerns affinity labelling of bL12 in situ on E. coli 70S ribosomes with a tRNA dialdehyde derivative.; cited from earlier work.
Series [2] has as its target recombinant E. coli ribosomal protein bL12 (L12), C-terminally His-tagged, as purified: (L7/L12)2 (E. coli) (UniProt P0A7K2). The experiment in a line: SEC; Superdex 75 column, elution followed at 280 nm and 260 nm, column calibrated with protein markers; apparent molecular weight about 50 kDa; oligomer of 13 kDa chains.

On to “50S ribosomal protein bL12 (L7/L12) (Escherichia coli)”, for which, in series [1], the pKa is reported as 7.2. As for “recombinant E. coli ribosomal protein bL12 (L12), C-terminally His-tagged, as purified: (L7/L12)2 (from UniProt P0A7K2 1-121; P0A7K2 1-121) (natural protein)”, the stoichiometry N in series [2] came to 4.
